According to paper PMC5400505, “Dissection of the interaction between the intrinsically disordered YAP protein and the transcription factor TEAD” (eLife, 2017):
Numbering of substitutions follows the chain as printed. In names and notes the source's numbering stands.

B1: N-terminally V5-tagged hTEAD4 Asp272Ala (natural protein, human, UniProt Q15561 1-434, looked up)
chain: MEGTAGTITSNEWSSPTSPEGSTASGGSQALDKPIDNDAEGVWSPDIEQSFQEALAIYPPCGRRKIILSDEGKMYGRNELIARYIKLRTGKTRTRKQVSSHIQVLARRKAREIQAKLKDQAAKDKALQSMAAMSSAQIISATAFHSSMALARGPGRPAVSGFWQGALPGQAGTSHDVKPFSQQTYAVQPPLPLPGFESPAGPAPSPSAPPAPPWQGRSVASSKLWMLEFSAFLEQQQDPDTYNKHLFVHIGQSSPSYSDPYLEAVDIRQIYAKFPEKKGGLKDLFERGPSNAFFLVKFWADLNTNIEDEGSSFYGVSSQYESPENMIITCSTKVCSFGKQVVEKVETEYARYENGHYSYRIHRSPLCEYMINFIHKLKHLPEKYMMNSVLENFTILQVVTNRDTQETLLCIAYVFEVSASEHGAQHHIYRLVKE
B2: wt hYAP^50-171 (domain or fragment, human, UniProt P46937-1 50-171, looked up)
chain: AGHQIVHVRGDSETDLEALFNAVMNPKTANVPQTVPMRLRKLPDSFFKPPEPKSHSRQASTDAGTAGALTPQHVRAHSSPASLQLGAVSPGTLTPTGVVSGPAATPTAQHLRQSSFEIPDDV
notes: YAP (Yes-associated protein), human, residues 50-171 of NM_001130145.2; also called hYAP wt; Wild type; source: E. coli NiCo21 (DE3), purified (HisTrap, tag cleaved by HRV 3C protease, Resource S, Superdex 75); not shown: His6, N-terminal, cleaved
B3: hYAP^50-171 Leu91Ala (domain or fragment, human, UniProt P46937-1 50-171, looked up)
chain: B2 chain with L42A
notes: YAP (Yes-associated protein), human, residues 50-171 of NM_001130145.2; also called hYAP Leu91Ala; source: E. coli NiCo21 (DE3), purified (HisTrap, tag cleaved by HRV 3C protease, Resource S, Superdex 75); not shown: His6, N-terminal, cleaved
B4: hYAP^50-171 Phe69Ala (domain or fragment, human, UniProt P46937-1 50-171, looked up)
chain: B2 chain with F20A
notes: YAP (Yes-associated protein), human, residues 50-171 of NM_001130145.2; also called hYAP Phe69Ala; source: E. coli NiCo21 (DE3), purified (HisTrap, tag cleaved by HRV 3C protease, Resource S, Superdex 75); not shown: His6, N-terminal, cleaved
B5: hYAP^50-171 Leu65Ala (domain or fragment, human, UniProt P46937-1 50-171, looked up)
chain: B2 chain with L16A
notes: YAP (Yes-associated protein), human, residues 50-171 of NM_001130145.2; also called hYAP Leu65Ala; source: E. coli NiCo21 (DE3), purified (HisTrap, tag cleaved by HRV 3C protease, Resource S, Superdex 75); not shown: His6, N-terminal, cleaved
B6: hYAP^50-171 Met86Ala (domain or fragment, human, UniProt P46937-1 50-171, looked up)
chain: B2 chain with M37A
notes: YAP (Yes-associated protein), human, residues 50-171 of NM_001130145.2; also called hYAP Met86Ala; source: E. coli NiCo21 (DE3), purified (HisTrap, tag cleaved by HRV 3C protease, Resource S, Superdex 75); not shown: His6, N-terminal, cleaved
B7: hYAP^50-171 Arg89Ala (domain or fragment, human, UniProt P46937-1 50-171, looked up)
chain: B2 chain with R40A
notes: YAP (Yes-associated protein), human, residues 50-171 of NM_001130145.2; also called hYAP Arg89Ala; R89A; source: E. coli NiCo21 (DE3), purified (HisTrap, tag cleaved by HRV 3C protease, Resource S, Superdex 75); not shown: His6, N-terminal, cleaved
B8: hYAP^50-171 Leu68Ala (domain or fragment, human, UniProt P46937-1 50-171, looked up)
chain: B2 chain with L19A
notes: YAP (Yes-associated protein), human, residues 50-171 of NM_001130145.2; also called hYAP Leu68Ala; source: E. coli NiCo21 (DE3), purified (HisTrap, tag cleaved by HRV 3C protease, Resource S, Superdex 75); not shown: His6, N-terminal, cleaved
B9: hYAP^50-171 Ser94Ala (domain or fragment, human, UniProt P46937-1 50-171, looked up)
chain: B2 chain with S45A
notes: YAP (Yes-associated protein), human, residues 50-171 of NM_001130145.2; also called hYAP Ser94Ala; source: E. coli NiCo21 (DE3), purified (HisTrap, tag cleaved by HRV 3C protease, Resource S, Superdex 75); not shown: His6, N-terminal, cleaved
B10: hYAP^50-171 Phe95Ala (domain or fragment, human, UniProt P46937-1 50-171, looked up)
chain: B2 chain with F46A
notes: YAP (Yes-associated protein), human, residues 50-171 of NM_001130145.2; also called hYAP Phe95Ala; source: E. coli NiCo21 (DE3), purified (HisTrap, tag cleaved by HRV 3C protease, Resource S, Superdex 75); not shown: His6, N-terminal, cleaved
B11: hYAP^50-171 Phe96Ala (domain or fragment, human, UniProt P46937-1 50-171, looked up)
chain: B2 chain with F47A
notes: YAP (Yes-associated protein), human, residues 50-171 of NM_001130145.2; also called hYAP Phe96Ala; source: E. coli NiCo21 (DE3), purified (HisTrap, tag cleaved by HRV 3C protease, Resource S, Superdex 75); not shown: His6, N-terminal, cleaved

Legend:
wt hYAP (full length) = wt hYAP (full length) (human, UniProt P46937 1-504); experiment: cell-based or functional assay
Sequence of wt hYAP (full length) (P46937 whole entry): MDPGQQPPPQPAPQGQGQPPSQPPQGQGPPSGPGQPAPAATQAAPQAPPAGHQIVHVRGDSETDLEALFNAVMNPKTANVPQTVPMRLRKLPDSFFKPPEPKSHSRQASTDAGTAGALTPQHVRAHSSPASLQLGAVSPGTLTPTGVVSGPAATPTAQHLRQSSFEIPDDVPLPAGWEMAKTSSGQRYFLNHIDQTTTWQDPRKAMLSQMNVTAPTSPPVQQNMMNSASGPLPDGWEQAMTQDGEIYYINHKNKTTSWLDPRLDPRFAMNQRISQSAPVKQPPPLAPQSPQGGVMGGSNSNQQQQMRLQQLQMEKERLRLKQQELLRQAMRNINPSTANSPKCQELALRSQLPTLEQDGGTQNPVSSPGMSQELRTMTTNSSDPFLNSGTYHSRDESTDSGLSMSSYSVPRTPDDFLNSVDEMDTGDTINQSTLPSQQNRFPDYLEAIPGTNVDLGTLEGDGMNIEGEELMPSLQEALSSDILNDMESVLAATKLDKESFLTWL

[1] = molecular target: T1, N-Avitagged wt hTEAD4^217-434 (human, UniProt Q15561 217-434, acylated at Cys367 (100%)); experiment: SPR; N-Avitagged hTEAD4^217-434 proteins immobilised on Series S Sensor Chip SA, YAP^50-171 proteins as analyte; Biacore T200; 25°C (298 K); 50 mM HEPES, 100 mM KCl, 0.25 mM TCEP, 1 mM EDTA, 0.05% Tween 20, 0.05% BSA, 2% DMSO, pH 7.4; Kd from equilibrium data (Kd^eq); upper limit for Kd^eq 200 µM; settings: both partners purified
T1 construct: TEAD4 (TEA/ATTS domain transcription factor 4), human, residues 217-434; held on streptavidin (SA) chips; also called Wild type; source: purified; not shown: Avitag, N-terminal, kept
T1 sequence (Q15561 217-434): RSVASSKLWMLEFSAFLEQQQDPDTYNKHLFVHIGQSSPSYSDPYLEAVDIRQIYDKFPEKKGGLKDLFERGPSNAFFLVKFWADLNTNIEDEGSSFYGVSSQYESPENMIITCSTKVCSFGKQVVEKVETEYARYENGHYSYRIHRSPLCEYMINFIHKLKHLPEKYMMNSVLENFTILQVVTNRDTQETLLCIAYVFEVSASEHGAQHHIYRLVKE

Row | Binder | MCAT_Luc reporter luciferase activity in HEK293::MCAT_Luc cells co-transfected with wt hYAP; against wt hTEAD4 (wt hYAP (full length)) [fold reduction] | Kd [1] [µM]
1 | B1 | ~4 | –
2 | B2 | – | 0.018
3 | B3 | – | 30.6
4 | B4 | – | 6.45
5 | B5 | – | 0.794
6 | B6 | – | 2.08
7 | B7 | – | 27.4
8 | B8 | – | 0.464
9 | B9 | – | 5.62
10 | B10 | – | 26
11 | B11 | – | 4.75
